Data on one variant can be found in IntAct's records for PubMed 18034774.

The chains are these.
B1: Ras-related protein Rab-5A (Homo sapiens), P20339 (parent)
chain: MASRGATRPNGPNTGNKICQFKLVLLGESAVGKSSLVLRFVKGQFHEFQESTIGAAFLTQTVCLDDTTVKFEIWDTAGQERYHSLAPMYYRGAQAAIVVYDITNEESFARAKNWVKELQRQASPNIVIALSGNKADLANKRAVDFQEAQSYADDNSLLFMETSAKTSMNVNEIFMAIAKKLPKNEPQNPGANSARGRGVDLTEPTQPTRNQCCSN
partner: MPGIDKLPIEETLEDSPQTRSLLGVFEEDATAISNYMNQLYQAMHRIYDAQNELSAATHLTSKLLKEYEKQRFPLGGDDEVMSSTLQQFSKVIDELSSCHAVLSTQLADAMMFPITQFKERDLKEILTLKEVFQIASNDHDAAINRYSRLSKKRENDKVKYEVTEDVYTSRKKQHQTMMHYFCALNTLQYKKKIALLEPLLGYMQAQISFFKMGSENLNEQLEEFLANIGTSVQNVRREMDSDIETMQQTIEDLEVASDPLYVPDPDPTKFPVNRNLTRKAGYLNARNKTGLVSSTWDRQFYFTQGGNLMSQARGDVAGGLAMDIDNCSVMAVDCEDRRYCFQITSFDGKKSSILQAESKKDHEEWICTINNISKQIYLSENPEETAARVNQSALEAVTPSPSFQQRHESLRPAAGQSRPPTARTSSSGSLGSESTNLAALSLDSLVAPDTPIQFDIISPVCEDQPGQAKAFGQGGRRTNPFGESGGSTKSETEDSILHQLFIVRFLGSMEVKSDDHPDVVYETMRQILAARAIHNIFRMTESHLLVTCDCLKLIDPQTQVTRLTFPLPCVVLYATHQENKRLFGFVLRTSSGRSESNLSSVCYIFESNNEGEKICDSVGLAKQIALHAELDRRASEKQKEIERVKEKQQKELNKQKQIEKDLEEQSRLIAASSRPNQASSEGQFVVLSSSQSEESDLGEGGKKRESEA

This assay covers variants of B1. To be noted: with dp13a_human APPL1, Q9UKG1.
S34N: the “effect of a mutation on the interaction” value is “disrupting interaction strength”.
